Measured values: patent US20260049146A1 (PARAGON THERAPEUTICS, published 2026)

Target: T1, Recombinant in-house Human FcRn protein (human, UniProt P55899 24-297; P61769 21-119)
T1 construct: also called HuFcRn; huFcRn
Experiment: competition ELISA, huFcRn coated, pH 6.0, competitor biotinylated human IgG1; reference PAL02-0002
Protocol: A competitive binding ELISA assay was used to screen for molecules that prevent IgG from binding to recombinant in-house human FcRn protein at pH 6.0. Candidate therapeutics prevent FcRn from binding IgG Abs in the acidic pH 6.0 endosomal environment. […] IC50 values were calculated using GraphPad Prism 7 software applying a nonlinear regression (curve fit) of a log (antagonist) vs. response—variable slop (four parameters).

T1 sequence (P55899 24-297 limits assumed, chain 1 of 2): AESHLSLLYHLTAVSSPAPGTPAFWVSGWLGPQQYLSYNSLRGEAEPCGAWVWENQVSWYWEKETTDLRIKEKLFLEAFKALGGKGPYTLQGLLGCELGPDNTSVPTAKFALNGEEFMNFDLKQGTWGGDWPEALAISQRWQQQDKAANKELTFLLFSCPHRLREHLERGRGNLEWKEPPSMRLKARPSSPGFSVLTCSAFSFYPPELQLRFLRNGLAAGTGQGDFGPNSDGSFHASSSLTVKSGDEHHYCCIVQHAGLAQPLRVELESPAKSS
T1 sequence (P61769 21-119 limits assumed, chain 2 of 2): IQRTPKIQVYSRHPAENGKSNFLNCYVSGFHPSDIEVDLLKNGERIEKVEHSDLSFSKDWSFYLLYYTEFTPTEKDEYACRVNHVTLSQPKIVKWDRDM

B1: Construct 1 PAL02-0195 (IgG1 Fc_M252Y/S254T/T256E/M428L/H433K/N434F) (other)
chain: DKTHTCPPCPAPELLGGPSVFLFPPKPKDTLYITREPEVTCVVVDVSHEDPEVKFNWYVDGVEVHNAKTKPREEQYNSTYRVVSVLTVLHQDWLNGKEYKCKVSNKALPAPIEKTISKAKGQPREPQVYTLPPSRDELTKNQVSLTCLVKGFYPSDIAVEWESNGQPENNYKTTPPVLDSDGSFFLYSKLTVDKSRWQQGNVFSCSVLHEALKFHYTQKSLSLSPG
notes: Fc fragment variant
With B1 the “IC50 as a ratio to Efgartigimod” value was ~0.5 ratio.

B2: Construct 3 PAL02-0197 (IgG1 Fc_M252Y/S254T/T256E/H433K/N434Y) (other)
chain: DKTHTCPPCPAPELLGGPSVFLFPPKPKDTLYITREPEVTCVVVDVSHEDPEVKFNWYVDGVEVHNAKTKPREEQYNSTYRVVSVLTVLHQDWLNGKEYKCKVSNKALPAPIEKTISKAKGQPREPQVYTLPPSRDELTKNQVSLTCLVKGFYPSDIAVEWESNGQPENNYKTTPPVLDSDGSFFLYSKLTVDKSRWQQGNVFSCSVMHEALKYHYTQKSLSLSPG
notes: Fc fragment variant
B2 was tested, and the “IC50 as a ratio to Efgartigimod” value was ~0.5 ratio and the “fold lower IC50 than Efgartigimod” value was 3.5 fold.

B3: Construct 6 PAL02-0202 (IgG1 Fc_M252Y/S254T/T256E/H433R/N434F) (other)
chain: DKTHTCPPCPAPELLGGPSVFLFPPKPKDTLYITREPEVTCVVVDVSHEDPEVKFNWYVDGVEVHNAKTKPREEQYNSTYRVVSVLTVLHQDWLNGKEYKCKVSNKALPAPIEKTISKAKGQPREPQVYTLPPSRDELTKNQVSLTCLVKGFYPSDIAVEWESNGQPENNYKTTPPVLDSDGSFFLYSKLTVDKSRWQQGNVFSCSVMHEALRFHYTQKSLSLSPG
notes: Fc fragment variant
In the case of B3, the “IC50 as a ratio to Efgartigimod” value is reported as ~0.5 ratio.

B4: Construct 5 PAL02-0200 (IgG1 Fc_M252Y/S254T/T256E/H433R/N434Y) (other)
chain: DKTHTCPPCPAPELLGGPSVFLFPPKPKDTLYITREPEVTCVVVDVSHEDPEVKFNWYVDGVEVHNAKTKPREEQYNSTYRVVSVLTVLHQDWLNGKEYKCKVSNKALPAPIEKTISKAKGQPREPQVYTLPPSRDELTKNQVSLTCLVKGFYPSDIAVEWESNGQPENNYKTTPPVLDSDGSFFLYSKLTVDKSRWQQGNVFSCSVMHEALRYHYTQKSLSLSPG
notes: Fc fragment variant
In the case of B4, the “IC50 as a ratio to Efgartigimod” value is reported as ~0.5 ratio.

B5: Construct 4 PAL02-0198 (IgG1 Fc_M252Y/S254T/T256E/M428L/N434F) (other)
chain: DKTHTCPPCPAPELLGGPSVFLFPPKPKDTLYITREPEVTCVVVDVSHEDPEVKFNWYVDGVEVHNAKTKPREEQYNSTYRVVSVLTVLHQDWLNGKEYKCKVSNKALPAPIEKTISKAKGQPREPQVYTLPPSRDELTKNQVSLTCLVKGFYPSDIAVEWESNGQPENNYKTTPPVLDSDGSFFLYSKLTVDKSRWQQGNVFSCSVLHEALHFHYTQKSLSLSPG
notes: Fc fragment variant
In the case of B5, the “IC50 as a ratio to Efgartigimod” value is reported as ~0.5 ratio.
